From the RNAGym collection of RNA variant scans (doi:10.7554/elife.80360)

B1: HDV Ribozyme (parent)
chain: GGCCGGCAUGGUCCCAGCCUCCUCGCUGGCGCCGGCUGGGCAACAUUCCGAGGGGACCGUCCCCUCGGUAAUGGCGAAUGGGACCCA

Variants of: B1
Experiment: self-cleavage, relative activity (ratio to wild type); higher = more cleavage; co-transcriptional
For GGCCGGCAUGGUCCCAGCCUCCUCGCUGGCGCCGGCUGGGCCACAUUUCGAGGGGACCGUCCCCUCGGUAAUGGCGAAUGGGACCCA [A42C C48U], the self-cleavage was 0.26.
Variant GGCCGGCAUGGUCCCAGCCUCCUCGCUGGCGCCGGCUGGGCCACAUUCCGAGGGGACCGUCCCCUCGGUAAUGGCGGAUGGGACCCA [A42C A77G] has a self-cleavage of 0.156.
With GGCCGGCAUGGUCCCAGCCUCCUCGCUGGCGCCGGCUGGGCCACAUUCCGAGGGGACCGUCGCCUCGGUAAUGGCGAAUGGGACCCA [A42C C62G] the self-cleavage was 0.0898.
In the case of GGCCGGCAUGGUCCCAGCCUCCUCGCUGGCGCCGGCUGGGCCACAUUCCGAGGGGACCGUCUCCUCGGUAAUGGCGAAUGGGACCCA [A42C C62U], the self-cleavage is reported as 0.157.
In the case of GGCCGGCAUGGUCCCAGCCUCCUCGCUGGCGCCGGCUGGGCCACAUUCCGAGGGGACCGUCCCCUCGGUAUUGGCGAAUGGGACCCA [A42C A71U], the self-cleavage is reported as 0.166.
For GGCCGGCAUGGUCCCAGCCUCCUCGCUGGCGCCGGCUGGGCCACAUUCCGAGGGGACCGUCCCCUCGGUACUGGCGAAUGGGACCCA [A42C A71C], the self-cleavage was 0.332.
For GGCCGGCAUGGUCCCAGCCUCCUCGCUGGCGCCGGCUGGGCCACAUUCAGAGGGGACCGUCCCCUCGGUAAUGGCGAAUGGGACCCA [A42C C49A], the self-cleavage was 0.262.
For GGCCGGCAUGGUCCCAGCCUCCUCGCUGGCGCCGGCUGGGCCACAUUCUGAGGGGACCGUCCCCUCGGUAAUGGCGAAUGGGACCCA [A42C C49U], the self-cleavage was 0.115.
Variant GGCCGGCAUGGUCCCAGCCUCCUCGCUGGCGCCGGCUGGGCCACAUUCCGAGGGGACCGUCCCCUCGGUAAUGGCGAAUGGAACCCA [A42C G82A] has a self-cleavage of 0.107.
For GGCCGGCAUGGUCCCAGCCUCCUCGCUGGCGCCGGCUGGGCCACAUUCCGAGGGGACCGUCCCCUCGGUAAUGGCGAAUGGCACCCA [A42C G82C], the self-cleavage was 0.
GGCCGGCAUGGUCCCAGCCUCCUCGCUGGCGCCGGCUGGGCCACAUUCCGAGGGGACCGUCCCCUCGGUAAUGGCGAAUGGUACCCA [A42C G82U] showed a self-cleavage of 0.138.
With GGCCGGCAUGGUCCCAGCCUCCUCGCUGGCGCCGGCUGGGCCACAUUCCGAGGGGACCGUCCCCUCGCUAAUGGCGAAUGGGACCCA [A42C G68C] the self-cleavage was 0.198.
In the case of GGCCGGCAUGGUCCCAGCCUCCUCGCUGGCGCCGGCUGGGCCACAUUCCGAGGGGACCGUCCCCUCGGUAAUUGCGAAUGGGACCCA [A42C G73U], the self-cleavage is reported as 0.0791.
In the case of GGCCGGCAUGGUCCCAGCCUCCUCGCUGGCGCCGGCUGGGCCACAGUCCGAGGGGACCGUCCCCUCGGUAAUGGCGAAUGGGACCCA [A42C U46G], the self-cleavage is reported as 0.166.
Work on GGCCGGCAUGGUCCCAGCCUCCUCGCUGGCGCCGGCUGGGCCACAAUCCGAGGGGACCGUCCCCUCGGUAAUGGCGAAUGGGACCCA [A42C U46A] yielded a self-cleavage of 0.107.
Work on GGCCGGCAUGGUCCCAGCCUCCUCGCUGGCGCCGGCUGGGCCACAUUCCGAGGGGACCGUCCCCUCGGUAAUGGCGAAUGGGACUCA [A42C C85U] yielded a self-cleavage of 0.415.
Variant GGCCGGCAUGGUCCCAGCCUCCUCGCUGGCGCCGGCUGGGCCACAUUCCGAGGGGACCGUCCCCUCGGUAAUGGCGAAUGAGACCCA [A42C G81A] has a self-cleavage of 0.104.
GGCCGGCAUGGUCCCAGCCUCCUCGCUGGCGCCGGCUGGGCCACAUUCCGAGGGGACCGUCCCCUCGGUAAUGGCGAAUGUGACCCA [A42C G81U] gave a self-cleavage of 0.16.
GGCCGGCAUGGUCCCAGCCUCCUCGCUGGCGCCGGCUGGGCCACAUUCCGAGGGGACCGUCCCCUCCGUAAUGGCGAAUGGGACCCA [A42C G67C] gave a self-cleavage of 0.17.
Work on GGCCGGCAUGGUCCCAGCCUCCUCGCUGGCGCCGGCUGGGCCACAUUCCGAGGGGACCGUCCCCUCAGUAAUGGCGAAUGGGACCCA [A42C G67A] yielded a self-cleavage of 0.249.
In the case of GGCCGGCAUGGUCCCAGCCUCCUCGCUGGCGCCGGCUGGGCCUCAUUCCGAGGGGACCGUCCCCUCGGUAAUGGCGAAUGGGACCCA [A42C A43U], the self-cleavage is reported as 0.122.
Variant GGCCGGCAUGGUCCCAGCCUCCUCGCUGGCGCCGGCUGGGCCGCAUUCCGAGGGGACCGUCCCCUCGGUAAUGGCGAAUGGGACCCA [A42C A43G] has a self-cleavage of 0.0898.
For GGCCGGCAUGGUCCCAGCCUCCUCGCUGGCGCCGGCUGGGCCACAUUCCGAGGGGACCGUCCCCUCGGUAAUGGCGAAUGGGAACCA [A42C C84A], the self-cleavage was 0.17.
Work on GGCCGGCAUGGUCCCAGCCUCCUCGCUGGCGCCGGCUGGGCCACAUUCCGAGGGGACCGUGCCCUCGGUAAUGGCGAAUGGGACCCA [A42C C61G] yielded a self-cleavage of 0.269.
In the case of GGCCGGCAUGGUCCCAGCCUCCUCGCUGGCGCCGGCUGGGCCACAUUCCGAGGGGACCGUACCCUCGGUAAUGGCGAAUGGGACCCA [A42C C61A], the self-cleavage is reported as 0.312.
Variant GGCCGGCAUGGUCCCAGCCUCCUCGCUGGCGCCGGCUGGGCCACAUUCCGAGGGGACCGUUCCCUCGGUAAUGGCGAAUGGGACCCA [A42C C61U] has a self-cleavage of 0.199.
Work on GGCCGGCAUGGUCCCAGCCUCCUCGCUGGCGCCGGCUGGGCCACAUUCCGAGAGGACCGUCCCCUCGGUAAUGGCGAAUGGGACCCA [A42C G53A] yielded a self-cleavage of 0.289.
Work on GGCCGGCAUGGUCCCAGCCUCCUCGCUGGCGCCGGCUGGGCCACAUUCCGAGGGAACCGUCCCCUCGGUAAUGGCGAAUGGGACCCA [A42C G55A] yielded a self-cleavage of 0.578.
GGCCGGCAUGGUCCCAGCCUCCUCGCUGGCGCCGGCUGGGCCACAUUCCGAGGGGACCGUCCCCUCGGUAAUGGCAAAUGGGACCCA [A42C G76A] gave a self-cleavage of 0.113.
For GGCCGGCAUGGUCCCAGCCUCCUCGCUGGCGCCGGCUGGGCCACAUUCCGAGGGGACCGUCCCCUCGGUAAUGGCCAAUGGGACCCA [A42C G76C], the self-cleavage was 0.277.
GGCCGGCAUGGUCCCAGCCUCCUCGCUGGCGCCGGCUGGGCCACAUUCCGAGGGGACCGUCCCCUCGGUAAUGACGAAUGGGACCCA [A42C G74A] gave a self-cleavage of 0.0652.
For GGCCGGCAUGGUCCCAGCCUCCUCGCUGGCGCCGGCUGGGCCACAUUCCGAGGGGACCGUCCCCUCGGUAAUGUCGAAUGGGACCCA [A42C G74U], the self-cleavage was 0.0733.
